# B1: Sfrp5: secreted frizzled-related protein 5, here overexpressed in adipocytes by AdTRE-Sfrp5 transduction (protein, UniProt Q9WU66 22-314, looked up)
# Secreted frizzled-related …: APTRGQEYDYYGWQAEPLHGRSYSKPPQCLDIPADLPLCHTVGYKRMRLPNLLEHESLAEVKQQASSWLPLLAKRCHSDTQVFLCSLFAPVCLDRPIYPCRSLCEAARAGCAPLMEAYGFPWPEMLHCHKFPLDNDLCIAVQFGHLPATAPPVTKICAQCEMEHSADGLMEQMCSSDFVVKMRIKEIKIDNGDRKLIGAQKKKKLLKAGPLKRKDTKKLVLHMKNGASCPCPQLDNLTGSFLVMGRKVEGQLLLTAVYRWDKKNKEMKFAVKFMFSYPCSLYYPFFYGAAEPH
# B2: Wnt5a: recombinant mouse Wnt5a protein produced in CHO cells, purchased from R&D Systems (protein)
# chain: IIGAQPLCSQLAGLSQGQKKLCHLYQDHMQYIGEGAKTGIKECQYQFRHRRWNCSTVDNTSVFGRVMQIGSRETAFTYAVSAAGVVNAMSRACREGELSTCGCSRAARPKDLPRDWLWGGCGDNIDYGYRFAKEFVDARERERIHAKGSYESARILMNLHNNEAGRRTVYNLADVACKCHGVSGSCSLKTCWLQLADFRKVGDALKEKYDSAAAMRLNSRGKLVQVNSRFNSPTTQDLVYIDPSPDYCVRNESTGSLGTQGRLCNKTSEGMDGCELMCCGRGYDQFKTVQTERCHCKFHWCCYVKCKKCTEIVDQFVCK
# Columns and labels:
# Assay type in all cases: cell-based, mouse
# 3T3-L1 adipocytes = assay: Sfrp5 and adiponectin transcript expression in 3T3-L1 adipocytes treated with stress agents (QRT-PCR); settings: differentiated 3T3-L1 adipocytes, 24 h; TNFα 10 ng/ml, H2O2 0.2 mM, tunicamycin 5 μg/ml
# Description: (§1) Mouse 3T3-L1 cells (ATCC) were maintained in DMEM with 10% fetal bovine serum (FBS) and differentiated into adipocytes by treatment with DMEM supplemented with 5 μg/ml of insulin, 0.5 mM 1-methyl-3-isobutyl-xanthin, and 1 μM dexamethazone. At day 7 after differentiation, 3T3-L1 adipocytes were treated with tunicamycin, H2O2, TNFα or vehicle for 24 h. Peritoneal macrophages from lean WT C57BL/6 mice were maintained in DMEM supplemented 10% FBS and placed in DMEM with 0.5% FBS for 16 h for serum starvation. Macrophages were incubated in the conditioned media from 3T3-L1 adipocytes transduced with adenoviral vectors in the presence of Wnt5a protein (200 ng/ml) or vehicle for 24 h. In some experiments, cells were pretreated with SP600125 (15 μM) or vehicle for 1 h followed by treatment with Wnt5a protein.
# (§2) Epididymal fat pads from male wild-type C57BL/6 mice fed a normal diet were excised, minced in PBS and digested with 1 mg/ml collagenase Type 1 (Worthington Chemical Corporation) at 37° C. for 30 min. The digested fat tissue was filtered through a mesh and centrifuged at 1000 rpm for 5 min to separate floating adipocytes from the SV fraction. Measurement of mRNA Levels Gene expression level was quantified by real-time PCR. Total RNA was prepared with the use of a Qiagen kit. cDNA was produced using ThermoScript RT-PCR Systems (Invitrogen). PCR was performed on iCycler iQ Real-Time PCR Detection System (Bio-Rad) using SYBR Green 1 as a double standard DNA specific dye (Applied Biosystems).
# [1] = tested on: TOPflash reporter activity (canonical Wnt signaling); assay: TOPflash luciferase reporter assay in 3T3-L1 adipocytes; settings: Wnt5a 200 ng/ml 24 h, AdTRE-Sfrp5 transduction
# Description: 3T3-L1 adipocytes were transduced with adenoviral vectors for 24 h and co-transfected with a TOPflash (Upstate) construct and a Renilla luciferase control plasmid (pRL-SV40, Promega) to normalize for transfection efficiency. After transfection, cells were treated with Wnt5a protein (200 ng/ml) or vehicle. Cells were lysed and analyzed on a luminometer by using dual luciferase assay kit (Promega).
# [2] = tested on: TNFα and IL-6 transcript expression by macrophages; assay: Wnt5a-stimulated TNFα and IL-6 transcript expression in peritoneal macrophages (QRT-PCR); settings: Wnt5a 200 ng/ml, 24 h
# Description: as §1
# as §2, with “PCR was performed on iCycler iQ Real-Time PCR Detection System (Bio-Rad) using SYBR Green 1 as a double standard DNA specific dye (Applied Biosystems).” left out
# [3] = tested on: JNK phosphorylation in macrophages; assay: Wnt5a-stimulated JNK phosphorylation in peritoneal macrophages (immunoblot); settings: in conditioned media from Ad-β-gal-treated 3T3-L1 adipocytes, 30 min
# Description: as §1, with “Macrophages were incubated in the conditioned media from 3T3-L1 adipocytes transduced with adenoviral vectors in the presence of Wnt5a protein (200 ng/ml) or vehicle for 24 h.” left out
# [4] = tested on: IL-6 expression in adipocytes; assay: Wnt5a-stimulated IL-6 expression in 3T3-L1 adipocytes (QRT-PCR); settings: Wnt5a 200 ng/ml 24 h
# Description: as §1
# as §2, with “PCR was performed on iCycler iQ Real-Time PCR Detection System (Bio-Rad) using SYBR Green 1 as a double standard DNA specific dye (Applied Biosystems).” left out
# [5] = tested on: phosphorylation of JNK in adipocytes; assay: Wnt5a-stimulated JNK phosphorylation in 3T3-L1 adipocytes (immunoblot); settings: Wnt5a 30 min
# Description: as §1
effect on TOPflash reporter activity [1],Molecule,Sfrp5 transcript levels (3T3-L1 adipocytes),transcript level of adiponectin (3T3-L1 adipocytes),other results
,TNFα,significantly reduced,down-regulated,
,OO [hydrogen peroxide],significantly reduced,down-regulated,
,tunicamycin,significantly reduced,down-regulated,
neither Sfrp5 nor Wnt5a had an effect,B1,,,
neither Sfrp5 nor Wnt5a had an effect,B2,,,IL-6 transcript expression by macrophages [2]: increased; TNFα transcript expression by macrophages [2]: increased; JNK phosphorylation in macrophages [3]: stimulated; IL-6 expression in adipocytes [4]: stimulatory effects; phosphorylation of JNK in adipocytes [5]: stimulatory effects

# From patent publication US20190292256A1, “Compounds and Methods to Measure Metabolic Function and Restore Normal Metabolic Function” (priority 2010, published 2019)
